This series concerns the target recombinant wild type full-length human galectin-3, His-tagged (unphosphorylated).

Sequence of recombinant wild type full-length human galectin-3, His-tagged (unphosphorylated) (chain, as listed by the source): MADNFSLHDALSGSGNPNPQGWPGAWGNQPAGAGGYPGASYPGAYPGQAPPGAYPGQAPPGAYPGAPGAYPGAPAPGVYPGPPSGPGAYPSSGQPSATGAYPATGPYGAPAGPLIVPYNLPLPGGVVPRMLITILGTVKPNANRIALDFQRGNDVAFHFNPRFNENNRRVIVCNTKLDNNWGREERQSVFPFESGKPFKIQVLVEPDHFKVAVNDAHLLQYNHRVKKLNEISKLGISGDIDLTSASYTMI

B1: active c-Abl kinase (protein)
chain: PVNSLEKHSWYHGPVSRNAAEYLLSSGINGSFLVRESESSPGQRSISLRYEGRVYHYRINTASDGKLYVSSESRFNTLAELVHHHSTVADGLITTLHYPAPKRNKPTVYGVSPNYDKWEMERTDITMKHKLGGGQYGEVYEGVWKKYSLTVAVKTLKEDTMEVEEFLKEAAVMKEIKHPNLVQLLGVCTREPPFYIITEFMTYGNLLDYLRECNRQEVNAVVLLYMATQISSAMEYLEKKNFIHRDLAARNCLVGENHLVKVADFGLSRLMTGDTYTAHAGAKFPIKWTAPESLAYNKFSIKSDVWAFGVLLWEIATYGMSPYPGIDLSQVYELLEKDYRMERPEGCPEKVYELMRACWQWNPSDRPSFAEIHQAFETMFQESSISDEVEKELGKQGVRGAVSTLLQAPELPTKTRTSRRAAEHRDTTDVPEMPHS
As to B1, the “in vitro tyrosine phosphorylation of galectin-3 (c-Abl kinase assay, pTyr blot)” value was “phosphorylating galectin-3 in vitro with active c-Abl”.

The values are drawn from US20150377889.
